The nanobody polyreactivity screen of Harvey et al. (2022)

Assay: yeast display, Sf9 membrane polyspecificity reagent, FACS + sequencing; frameworks hold sequencing errors
Method in brief: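 Using colony PCR, genes from sorted yeast display clones were amplified, then sequenced on MiSeq at 2 × 250 and filtered by CDR length. The clones had been stained with 10% biotinylated, detergent-solubilized Sf9 membrane reagent for 1 hour at 4 °C and sorted by FACS into low and high (top ~1%) gates on anti-HA and streptavidin fluorescence. Polyreactivity labels come from the gate of origin.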

Sequence	polyreactivity (PSR sort gate)
QVQHVESGGGLVQAGGSLRLSCAASGRTFTPNAMGWYRPPPGKVREMVAAIDWRGGRTYYADSVKGRFTISRDNAKNTVYLQKNSLKPEDTAVYYCAARVDGYQYKSAGYSYGVFYWGQGTQVTVSS	low polyreactivity
QVQLVESGGGLVQAGGSLRLSCAASGRIFGHYARGWYRQAPGKERELVAAITSGGRTYYADSVKGRFTISRDNAKNTVYLQMNSLKPEDTAVYYFNVRVFVGLQPFGYWGQGTQVTVSS	high polyreactivity
QVQLVESGGGLVQAGGSLRLSCAASGRIFEYYAMGWYRQAPGKERELVAVISSGSSTNYADSVKGRFTISRDNAKNTVYLQMNSLKPEDTAVYYCAAEYSVYYRFSDGDYWGQGTQVTVSS	low polyreactivity
QVQLVESGGCLFQAGGSLRLICAASGSISGLYAIGWYRQAPGKERELVARIRWRGDSTYYADSVKGRFTISRDNAKNTVYLQMNSLKPEDTAVYYCAASAYSGKVNKYNYWGQGTQVTVSS	high polyreactivity
QVQLVESGGGLVQAGGSLRLSCAASGRTLRYYAMGWYRQAPGKERELVAAITKSGGSTYYADSVKGRFTISRDNAKNTVYLQMTSLKPEDTAVYYCNKVTYSRAQYIGGDGYYWGQGTQVTVSS	high polyreactivity
QVQLVESGGGLVQAGGSLRLSCAASGLTFVAYAMGWYRQAPGKERELVASISSRTGGTSYADSVKGRFTISRDNAKNTVYLQMNSLKPEDTAVYYCNAAARRYTSVFYTSGYTFDYWGQGTQVTVSS	low polyreactivity
QVQLVESGGGLVQAGGSLRLSCAASGSIFAGYAMGWYRQAPGKERELVAAISRSGGRTYYADSVKRRFTISRDNAKNTVNLQMNSLKPEDTAVYYCAAHRRSANDYDYWGQGTQVTVSS	high polyreactivity
QVQLVESGGGLVQAGGSLRLICAASGSILQRNAMGWYRPAPGKERELVAAISWSGDNTYYADSVKGRFTISRDNAKNTVYLQMNSVKPEDTAVYYCATDADIYFQEYDYWGQGTQVTVSS	low polyreactivity
QVQLVESGGGLVQAGGSLRLSCAASGITFYGNAMGWYRQAPGKERELVAGISSGGSTSYADSVKGRFTISRDNAKNTVYLQMDSLKPEDTAVYYCAKRWYYGTRYGTSYIRDYWGQGTQVTVSS	high polyreactivity
QVQLVESGGGLVQAGGSLRLSCAASGLIFRPYTMGWYRQAPGKERELVATISGSGASTNYADSVNGRFTISRDNAKNTVYLQMNSLKPEDTAVYYCKGRCYSRMYYWGQGTQVTVSS	high polyreactivity
QVQLVESGGGLVQAGGSLRLSCAASGSIFWDYAMGWYRQAPGKERELVAAISGSGTSTYYADSVKGRFTISRDNAKNTVYLQMNSLKPEDTAVYYCAARIWTGRGRKLGNGYDYWGQGTQVTVSS	low polyreactivity
QVQLVESGGGLVQAGGSLRLSCAASGITFYPYAMGWYRQAPGKERELVAAISWRSGSTNYADSVKGRFTISRDNAKNTVYLQMNSLKPEDTAVYYCNFDKVTSWYYYGYWGQGTQVTVSS	low polyreactivity
QVQLVESGGGLVQAGGSLRLSCAASGSIFLQYAMGWYRQAPGKERELVAAISWSGGSTYYADSVKGRFTISRDNAKNTVYVQMNSLKPEDTAVYYCAAPITPYRHYRMDYWGQGTQVTVSS	low polyreactivity
QVQLVESGGGLVQAGGSLRLSCAASGRIFWSNAMGWYRQAPGKERELVAAIRNTCSTNYADSVKGRFTISRDNAKNTVYLQMISLKPEDTGVYYCAADRASYFTYAYGYWGQGTQVTVSS	high polyreactivity
QVQLVESGGGLVQAGGSLRLSCAASGRIFRRYAMGWYRQAPGKERELVSAITSGSSTYYADSVKGRFTISRDNPKNTVNLQMISVKPEYSAVYYCAALGYTYKYYSYYWGHGTQVTVSS	high polyreactivity
QVQLVESGGGLVQAGGSLRLSCAASGLSSLRMLWDGLDRRLGKKGSWLPLITSGGDSTNYADSVKGRFTISRDNAKNTVYLQMNSLKPEDTAVYYCAADLDYPYGYWGQGTQVTVSS	low polyreactivity
QVQLVESGGGLVQAGGSLRLICAASGFTFDYNAMGWYRPAPVKERELVAAISGSGGSTFYADSVKGRFTISRDNAKNTVYLQMNSLKPEDTAVYYCNVYQHDDDFDYWGQGTQVTVSS	low polyreactivity
